Numbering of substitutions follows the chain as printed.
T1: human PDL2 (human, UniProt Q9BQ51 20-219, limits assumed)
T1 sequence (looked up): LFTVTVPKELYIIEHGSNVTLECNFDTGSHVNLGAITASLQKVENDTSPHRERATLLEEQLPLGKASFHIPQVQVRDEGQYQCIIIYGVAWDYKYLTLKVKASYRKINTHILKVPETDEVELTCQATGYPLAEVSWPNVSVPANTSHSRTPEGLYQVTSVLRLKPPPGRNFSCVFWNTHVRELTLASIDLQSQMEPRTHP

B1: tccD7_#114 (antibody, V domains shown)
VH: EVQLLESGGGLVQPGGSLRLSCAASGFTFSSYLMVWVRQAPGKGLEWVSSIYPSGGITFYADSVKGRFTISRDNSKNTLYLQMNSLRAEDTAIYYCARIKLGTVTTVDYWGQGTLVTVSS
VL: QSALTQPASVSGSPGQSITISCTGTSSDVGAYNYVSWYQQHPGKAPKLMIYDVSNRPSGVSNRFSGSKSGNTASLTISGLQAEDEADYYCSSYTSSSTRVFGTGTKVTVLG
notes: converted to IgG and to an IgG with two Leu-Ala substitutions
B2: tccD7_#102 (antibody, V domains shown)
VH: B1 VH with S31A, L33R, V35F
VL: B1 VL
notes: converted to IgG and to an IgG with two Leu-Ala substitutions; also called tccD7_#2; cD7_#2

Key:
[1] = biological target: T1, human PDL2; experiment: binding assay of FIG. 17
[2] = biological target: T2, soluble human PDL1 (human, UniProt Q9NZQ7 19-239, limits assumed); experiment: binding assay of FIG. 17
T2 construct: May be the same protein as the human PDL1-Fc; also called soluble PDL1
T2 sequence (Q9NZQ7 19-239 limits assumed): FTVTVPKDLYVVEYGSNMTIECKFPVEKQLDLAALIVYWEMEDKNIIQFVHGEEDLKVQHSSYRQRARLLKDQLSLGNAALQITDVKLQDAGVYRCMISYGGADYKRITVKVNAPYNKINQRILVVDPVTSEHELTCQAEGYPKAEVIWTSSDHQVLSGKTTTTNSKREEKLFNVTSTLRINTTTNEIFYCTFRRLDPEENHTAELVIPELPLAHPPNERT

[3] = biological target: T3, soluble mouse PDL1 (mouse, UniProt Q9EP73 19-238, limits assumed); experiment: binding assay of FIG. 17
T3 construct: May be the same protein as the murine PDL1-Fc
T3 sequence (Q9EP73 19-238 limits assumed): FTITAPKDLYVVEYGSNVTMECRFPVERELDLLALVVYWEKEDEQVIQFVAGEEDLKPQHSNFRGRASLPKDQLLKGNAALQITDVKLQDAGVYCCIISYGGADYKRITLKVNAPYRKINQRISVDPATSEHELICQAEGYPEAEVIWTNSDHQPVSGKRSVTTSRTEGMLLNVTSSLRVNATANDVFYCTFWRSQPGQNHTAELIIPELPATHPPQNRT

[4] = biological target: T4, human PD-L1 on cells (PDLI-293 / HEK-293 cells expressing PD-L1, MDA-MB-231 cells, activated CD4 cells, … (human, UniProt Q9NZQ7 19-290)); experiment: binding to MDA-MB-231 cells, FIG. 19
T4 construct: whole, on cells
T4 sequence (Q9NZQ7 19-290): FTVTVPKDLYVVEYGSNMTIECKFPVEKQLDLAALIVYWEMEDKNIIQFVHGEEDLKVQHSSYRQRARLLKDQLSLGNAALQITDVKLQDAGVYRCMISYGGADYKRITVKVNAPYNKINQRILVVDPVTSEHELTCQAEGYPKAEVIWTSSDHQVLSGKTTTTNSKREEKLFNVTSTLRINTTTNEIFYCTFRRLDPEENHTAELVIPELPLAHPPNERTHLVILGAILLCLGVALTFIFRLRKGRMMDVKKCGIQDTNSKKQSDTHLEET

| Binder | binding result [1] | binding result [2] | binding result [3] | binding result [4] |
| --- | --- | --- | --- | --- |
| B1 | no binding | binds | binds | binds |
| B2 | no binding | binds | binds | binds |
